To fix the notation:
B1: P11d4 (monoclonal antibody) (antibody, V domains shown)
VH: QVTLRESGPALVKPTQTLTLTCTFSGFSLSTPGMSVGWIRQPPGKALEWLADIWWDGKKHYNPSLKDRLTISKDTSKNQVVLKVTNMDPADTATYYCARDMIFNWYFDVWGQGTTVTVSS
VL: DIQMTQSPSTLSASVGDRVTITCSPSSRVGYMHWYQQKPGKAPKLLIYDTMRLASGVPSRFSGSGSGTEFTLTISSLQPDDFATYYCFQGSGYPFTFGGGTKVEIK
B2: A17d4 (monoclonal antibody) (antibody, V domains shown)
VH: QVTLRESGPALVKPTQTLTLTCTFSGFSLSTAGMSVGWIRQPPGKALEWLADIWWDGKKSYNPSLKDRLTISKDTSKNQVVLKVTNMDPADTATYYCARDMIFNFYFDVWGQGTTVTVSS
VL: DIQMTQSPSTLSASVGDRVTITCLPSSRVGYMHWYQQKPGKAPKLLIYDTMYQASGVPSRFSGSGSGTEFTLTISSLQPDDFATYYCFQFSGYPFTFGGGTKLEIK
B3: A8c7 (monoclonal antibody) (antibody, V domains shown)
VH: QVTLRESGPALVKPTQTLTLTCTFSGFSLSTAGMSVGWIRQPPGKALEWLADIWWDDKKSYNPSLKDRLTISKDTSKNQVVLKVTNMDPADTATYYCARDMIFNWYFDVWGQGTTVTVSS
VL: DIQMTQSPSTLSASVGDRVTITCSASSRVGYMHWYQQKPGKAPKLLIYDTRYQSSGVPSRFSGSGSGTEFTLTISSLQPDDFATYYCFQGSGYPFTFGGGTKLEIK
B4: P12f2 (monoclonal antibody) (antibody, V domains shown)
VH: QVTLRESGPALVKPTQTLTLTCTFSGFSLSTPGMSVGWIRQPPGKALEWLADIWWDDKKHYNPSLKDRLTISKDTSKNQVVLKVTNMDPADTATYYCARDMIFNFYFDVWGAGTTVTVSS
VL: DIQMTQSPSTLSASVGDRVTITCSLSSRVGYMHWYQQKPGKAPKLLIYDTFYLSSGVPSRFSGSGSGTEFTLTISSLQPDDFATYYCFQGSGYPFTFGGGTKVEIK
B5: A1e9 (monoclonal antibody) (antibody, V domains shown)
VH: QVTLRESGPALVKPTQTLTLTCTFSGFSLSTPGMSVGWIRQPPGKALEWLADIWWDGKKHYNPSLKDRLTISKDTSKNQVVLKVTNMDPADTATYYCARDMIFNWYFDVWGQGTTVTVSS
VL: DIQMTQSPSTLSASVGDRVTITCSLSSRVGYMHWYQQKPGKAPKLLIYDTFKLSSGVPSRFSGSGSGTEFTLTISSLQPDDFATYYCFQGSGYPFTFGGGTKVEIK
B6: A13c4 (monoclonal antibody) (antibody, V domains shown)
VH: QVTLRESGPALVKPTQTLTLTCTFSGFSLSTAGMSVGWIRQPPGKALEWLADIWWDGKKSYNPSLKDRLTISKDTSKNQVVLKVTNMDPADTATYYCARDMIFNFYFDVWGQGTTVTVSS
VL: DIQMTQSPSTLSASVGDRVTITCSLSSRVGYMHWYQQKPGKAPKLLIYDTMYQSSGVPSRFSGSGSGTEFTLTISSLQPDDFATYYCFQGSGYPFTFGGGTKVEIK
B7: P12f4 (monoclonal antibody) (antibody, V domains shown)
VH: QVTLRESGPALVKPTQTLTLTCTFSGFSLSTPGMSVGWIRQPPGKALEWLADIWWDGKKHYNPSLKDRLTISKDTSKNQVVLKVTNMDPADTATYYCARDMIFNFYFDVWGQGTTVTVSS
VL: DIQMTQSPSTLSASVGDRVTITCSLSSRVGYMHWYQQKPGKAPKLLIYDTRGLPSGVPSRFSGSGSGTEFTLTISSLQPDDFATYYCFQGSGYPFTFGGGTKVEIK
B8: A12a6 (monoclonal antibody) (antibody, V domains shown)
VH: QVTLRESGPALVKPTQTLTLTCTFSGFSLSTAGMSVGWIRQPPGKALEWLADIWWDGKKDYNPSLKDRLTISKDTSKNQVVLKVTNMDPADTATYYCARDMIFNFYFDVWGQGTTVTVSS
VL: DIQMTQSPSTLSASVGDRVTITCSASSRVGYMHWYQQKPGKAPKLLIYDTFKLSSGVPSRFSGSGSGTEFTLTISSLQPDDFATYYCFQGSGYPFTFGGGTKVEIK
B9: AFFF (monoclonal antibody) (antibody, V domains shown)
VH: QVTLRESGPALVKPTQTLTLTCTFSGFSLSTAGMSVGWIRQPPGKALEWLADIWWDDKKDYNPSLKSRLTISKDTSKNQVVLKVTNMDPADTATYYCARSMITNFYFDVWGAGTTVTVSS
VL: DIQMTQSPSTLSASVGDRVTITCSASSSVGYMHWYQQKPGKAPKLLIYDTFKLASGVPSRFSGSGSGTEFTLTISSLQPDDFATYYCFQFSGYPFTFGGGTKLEIK
B10: L1-7E5 (Fab fragment) (Fab, V domains shown)
VH: QVTLRESGPALVKPTQTLTLTCTFSGFSLSTAGMSVGWIRQPPGKALEWLADIWWDDKKDYNPSLKSRLTISKDTSKNQVVLKVTNMDPADTATYYCARDMITNFYFDVWGAGTTVTVSS
VL: DIQMTQSPSTLSASVGDRVTITCSASSSVGYMHWYQQKPGKAPKLLIYDTFRLASGVPSRFSGSGSGTEFTLTISSLQPDDFATYYCFQGSGYPFTFGGGTKLEIK
B11: AFFF (Fab fragment) (Fab, V domains shown)
VH: QVTLRESGPALVKPTQTLTLTCTFSGFSLSTAGMSVGWIRQPPGKALEWLADIWWDDKKDYNPSLKSRLTISKDTSKNQVVLKVTNMDPADTATYYCARSMITNFYFDVWGAGTTVTVSS
VL: DIQMTQSPSTLSASVGDRVTITCSASSSVGYMHWYQQKPGKAPKLLIYDTFKLASGVPSRFSGSGSGTEFTLTISSLQPDDFATYYCFQFSGYPFTFGGGTKLEIK

Several values for one entry are separate records, joined by “and”; a condition that tells them apart may be missing. Equal entries are not always repeated.

In the first experiment the target is Bac-F. Nature of the experiment: BIAcore, mAb vs Bac-F (1:1). On the technique in general: SPR reads the build-up and loss of mass on a sensor chip optically.
For orientation: Kd means the concentration at which binding is half-saturated. High values mean lower affinity, low ones higher affinity. For orientation: koff means the first-order rate constant of dissociation. High values mean fast dissociation, low ones slow dissociation. By kon is commonly meant the rate constant with which the complex forms. The low end stands for slow association, the high end for fast association. For B1, the Kd was found to be 0.62 nM, the koff was 0.000289 s⁻¹, the kon was 466000 M⁻¹ s⁻¹ and the number in parentheses after KD (fold against SYNAGIS = 1) came to 6 fold.
In the same order, the values of B2 are 0.09 nM, 4.07e-05 s⁻¹, 456000 M⁻¹ s⁻¹ and 43 fold.
The matching figures for B3: 0.21 nM, 8.75e-05 s⁻¹, 417000 M⁻¹ s⁻¹ and 19 fold.
The matching figures for B4: 0.31 nM, 0.000128 s⁻¹, 407000 M⁻¹ s⁻¹ and 13 fold.
As for B5, the dissociation constant Kd came out at 0.33 nM, the koff was found to be 0.000143 s⁻¹, the kon was 433000 M⁻¹ s⁻¹ and the number in parentheses after KD (fold against SYNAGIS = 1) was determined as 12 fold.
In the same order, the values of B6 are 0.13 nM, 3.96e-05 s⁻¹, 300000 M⁻¹ s⁻¹ and 30 fold.
In the same order, the values of B7 are 0.11 nM, 5.55e-05 s⁻¹, 495000 M⁻¹ s⁻¹ and 35 fold.
In the same order, the values of B8 are 0.04 nM, 1.65e-05 s⁻¹, 460000 M⁻¹ s⁻¹ and 98 fold.

The target in another experiment is RSV F protein (immobilized on the BIAcore sensor chip) (respiratory syncytial virus). Briefly: BIAcore, immobilized F protein.
RSV F protein (immobilized on the BIAcore sensor chip) (respiratory syncytial virus), sequence (P03420 26-524): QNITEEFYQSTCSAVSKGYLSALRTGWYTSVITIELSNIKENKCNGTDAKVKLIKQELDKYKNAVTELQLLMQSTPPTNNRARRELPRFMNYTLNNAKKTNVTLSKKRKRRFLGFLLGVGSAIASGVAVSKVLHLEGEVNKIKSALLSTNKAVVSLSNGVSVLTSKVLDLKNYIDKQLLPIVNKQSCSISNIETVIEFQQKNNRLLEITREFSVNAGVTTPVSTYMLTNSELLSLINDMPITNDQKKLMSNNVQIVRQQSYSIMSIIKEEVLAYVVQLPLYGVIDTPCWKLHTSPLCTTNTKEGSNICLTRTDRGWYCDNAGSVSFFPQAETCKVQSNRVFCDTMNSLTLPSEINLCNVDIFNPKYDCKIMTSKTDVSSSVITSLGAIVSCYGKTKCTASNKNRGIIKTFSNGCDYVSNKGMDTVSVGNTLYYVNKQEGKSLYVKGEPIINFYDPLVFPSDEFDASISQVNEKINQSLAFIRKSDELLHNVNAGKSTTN
For the molecule B9, the koff is 0.000274 s⁻¹ and 0.000266 s⁻¹ and 0.000206 s⁻¹; the kon was 108000 M⁻¹ s⁻¹ and 96000 M⁻¹ s⁻¹ and 124000 M⁻¹ s⁻¹.
For B10, the koff was 0.000192 s⁻¹ and 0.000331 s⁻¹ and 0.000229 s⁻¹.
Take B11: the koff is 0.000245 s⁻¹ and 0.000446 s⁻¹ and 0.000268 s⁻¹; the kon is 212000 M⁻¹ s⁻¹ and 156000 M⁻¹ s⁻¹ and 186000 M⁻¹ s⁻¹.

For the origin of these results see patent publication US20030091584A1.
